Laboratory results from the Immune Epitope Database (IEDB).
Each block holds one sequence with its values, some of them ahead of it.

Experiments:
HLA-A*11:01 = test: IEDB peptide-MHC binding, purified MHC/direct/fluorescence; filed as Kd, often an IC50 or EC50 that approximates it; ≥ and ≤ were set here for values at or beyond the usual limits of such assays
HLA-A*01:01 = test: as above
HLA-A*69:01 [1] = test: as above
HLA-B*07:02 = test: as above
HLA-A*03:01 [2] = test: as above
HLA-A*26:01 [3] = test: as above
HLA-A*24:03 [4] = test: as above
HLA-B*40:01 = test: as above
HLA-B*58:01 [5] = test: as above
HLA-B*08:01 = test: as above
HLA-B*27:05 = test: as above
HLA-A*30:01 = test: as above
HLA-B*15:01 [6] = test: as above
HLA-A*02:01 [7] = test: as above
HLA-A*02:11 = test: IEDB peptide-MHC binding, purified MHC/competitive/fluorescence; filed as Kd, often an IC50 or EC50 that approximates it; ≥ and ≤ were set here for values at or beyond the usual limits of such assays; conditions: source organism: Yersinia mollaretii ATCC 43969
HLA-B*46:01 = test: as above; conditions: source organism: Yersinia mollaretii ATCC 43969
HLA-B*51:01 = test: as above; conditions: source organism: Yersinia mollaretii ATCC 43969
HLA-B*18:01 = test: as above; conditions: source organism: Yersinia mollaretii ATCC 43969
HLA-A*29:02 = test: as above; conditions: source organism: Yersinia mollaretii ATCC 43969
HLA-A*02:12 = test: as above; conditions: source organism: Yersinia mollaretii ATCC 43969
HLA-A*02:03 = test: as above; conditions: source organism: Yersinia mollaretii ATCC 43969
HLA-A*69:01 [8] = test: as above; conditions: source organism: Yersinia mollaretii ATCC 43969
HLA-A*03:01 [9] = test: as above; conditions: source organism: Yersinia mollaretii ATCC 43969
HLA-A*26:01 [10] = test: as above; conditions: source organism: Yersinia mollaretii ATCC 43969
HLA-A*24:03 [11] = test: as above; conditions: source organism: Yersinia mollaretii ATCC 43969
HLA-B*57:01 [12] = test: as above; conditions: source organism: Yersinia mollaretii ATCC 43969
HLA-A*02:16 = test: as above; conditions: source organism: Yersinia mollaretii ATCC 43969
HLA-B*27:03 = test: as above; conditions: source organism: Yersinia mollaretii ATCC 43969
HLA-B*15:17 [13] = test: as above; conditions: source organism: Yersinia mollaretii ATCC 43969
HLA-B*15:01 [14] = test: as above; conditions: source organism: Yersinia mollaretii ATCC 43969
HLA-A*02:19 = test: as above; conditions: source organism: Yersinia mollaretii ATCC 43969
HLA-A*02:01 [15] = test: as above; conditions: source organism: Yersinia mollaretii ATCC 43969
HLA-B*39:01 = test: as above; conditions: source organism: Yersinia mollaretii ATCC 43969
HLA-A*68:02 = test: as above; conditions: source organism: Yersinia mollaretii ATCC 43969
HLA-A*31:01 = test: IEDB peptide-MHC binding, purified MHC/direct/fluorescence; filed as Kd, often an IC50 or EC50 that approximates it; ≥ and ≤ were set here for values at or beyond the usual limits of such assays
HLA-B*35:01 = test: as above
HLA-B*44:02 = test: as above
HLA-C*15:02 = test: as above; conditions: source organism: Cryptosporidium parvum
HLA-B*57:01 [16] = test: as above; conditions: source organism: Cryptosporidium parvum
HLA-B*15:17 [17] = test: as above; conditions: source organism: Cryptosporidium parvum
HLA-B*58:01 [18] = test: IEDB peptide-MHC binding, purified MHC/competitive/fluorescence; filed as Kd, often an IC50 or EC50 that approximates it; ≥ and ≤ were set here for values at or beyond the usual limits of such assays; conditions: source organism: Mycobacterium tuberculosis C
[19] = source organism: Collimonas fungivorans
[20] = source organism: Vibrio cholerae
[21] = source organism: Cryptosporidium parvum
[22] = source organism: Vibrio vulnificus
[23] = source organism: Giardia lamblia ATCC 50803

Kd (HLA-A*11:01; [19]): 0.168 µM
Kd (HLA-A*01:01; [19]): ≥ 20 µM
Kd (HLA-A*69:01 [1]; [19]): ≥ 20 µM
Kd (HLA-B*07:02; [19]): ≥ 20 µM
Kd (HLA-A*03:01 [2]; [19]): 2.28 µM
Kd (HLA-A*26:01 [3]; [19]): ≥ 20 µM
Kd (HLA-A*24:03 [4]; [19]): 2.4 µM
Kd (HLA-B*40:01; [19]): ≥ 20 µM
Kd (HLA-B*58:01 [5]; [19]): ≥ 20 µM
Kd (HLA-B*08:01; [19]): ≥ 20 µM
Kd (HLA-B*27:05; [19]): ≥ 20 µM
Kd (HLA-A*30:01; [19]): 0.00979 µM
Kd (HLA-B*15:01 [6]; [19]): ≥ 20 µM
Kd (HLA-A*02:01 [7]; [19]): ≥ 20 µM
Sequence: AYSPFAFKK

Sequence: DEQEFFYSQ
Kd (HLA-A*02:11): ≥ 20 µM
Kd (HLA-B*46:01): ≥ 20 µM
Kd (HLA-B*51:01): ≥ 20 µM
Kd (HLA-B*18:01): 0.0003 µM
Kd (HLA-A*29:02): ≥ 20 µM
Kd (HLA-A*02:12): ≥ 20 µM
Kd (HLA-A*02:03): ≥ 20 µM
Kd (HLA-A*69:01 [8]): ≥ 20 µM
Kd (HLA-A*03:01 [9]): ≥ 20 µM
Kd (HLA-A*26:01 [10]): ≥ 20 µM
Kd (HLA-A*24:03 [11]): ≥ 20 µM
Kd (HLA-B*57:01 [12]): ≥ 20 µM
Kd (HLA-A*02:16): ≥ 20 µM
Kd (HLA-B*27:03): ≥ 20 µM
Kd (HLA-B*15:17 [13]): ≥ 20 µM
Kd (HLA-B*15:01 [14]): ≥ 20 µM
Kd (HLA-A*02:19): ≥ 20 µM
Kd (HLA-A*02:01 [15]): ≥ 20 µM
Kd (HLA-B*39:01): ≥ 20 µM
Kd (HLA-A*68:02): ≥ 20 µM

Sequence: GEHWLGRIW
Kd (HLA-A*11:01; [20]): ≥ 20 µM
Kd (HLA-A*01:01; [20]): ≥ 20 µM
Kd (HLA-A*31:01; [20]): ≥ 20 µM
Kd (HLA-B*35:01; [20]): ≥ 10 µM
Kd (HLA-A*69:01 [1]; [20]): ≥ 20 µM
Kd (HLA-B*07:02; [20]): ≥ 20 µM
Kd (HLA-A*03:01 [2]; [20]): ≥ 20 µM
Kd (HLA-A*26:01 [3]; [20]): ≥ 20 µM
Kd (HLA-B*40:01; [20]): 0.858 µM
Kd (HLA-B*58:01 [5]; [20]): 19.4 µM
Kd (HLA-B*08:01; [20]): ≥ 20 µM
Kd (HLA-B*27:05; [20]): 13.1 µM
Kd (HLA-B*44:02; [20]): 3.83 µM
Kd (HLA-A*30:01; [20]): ≥ 20 µM
Kd (HLA-B*15:01 [6]; [20]): ≥ 20 µM
Kd (HLA-A*02:01 [7]; [20]): ≥ 20 µM

Sequence: ISCQIYNAL
Kd (HLA-A*11:01; [21]): ≥ 20 µM
Kd (HLA-A*01:01; [21]): ≥ 20 µM
Kd (HLA-A*31:01; [21]): ≥ 20 µM
Kd (HLA-B*35:01; [21]): 0.169 µM
Kd (HLA-A*69:01 [1]; [21]): ≥ 20 µM
Kd (HLA-B*07:02; [21]): ≥ 20 µM
Kd (HLA-C*15:02): 0.385 µM
Kd (HLA-A*03:01 [2]; [21]): ≥ 20 µM
Kd (HLA-A*26:01 [3]; [21]): ≥ 20 µM
Kd (HLA-B*40:01; [21]): 0.192 µM
Kd (HLA-B*57:01 [16]): ≥ 20 µM
Kd (HLA-B*08:01; [21]): ≥ 20 µM
Kd (HLA-B*27:05; [21]): ≥ 20 µM
Kd (HLA-B*44:02; [21]): ≥ 20 µM
Kd (HLA-B*15:17 [17]): 0.0826 µM
Kd (HLA-B*15:01 [6]; [21]): 0.27 µM
Kd (HLA-A*02:01 [7]; [21]): ≥ 20 µM

Sequence: QKDINTPGY
Kd (HLA-A*11:01; [22]): ≥ 20 µM
Kd (HLA-A*01:01; [22]): ≥ 20 µM
Kd (HLA-A*31:01; [22]): ≥ 20 µM
Kd (HLA-A*69:01 [1]; [22]): ≥ 20 µM
Kd (HLA-B*07:02; [22]): ≥ 20 µM
Kd (HLA-A*03:01 [2]; [22]): ≥ 20 µM
Kd (HLA-A*26:01 [3]; [22]): ≥ 20 µM
Kd (HLA-B*40:01; [22]): ≥ 20 µM
Kd (HLA-B*58:01 [5]; [22]): ≥ 20 µM
Kd (HLA-B*08:01; [22]): ≥ 20 µM
Kd (HLA-B*27:05; [22]): ≥ 20 µM
Kd (HLA-B*44:02; [22]): ≥ 20 µM
Kd (HLA-A*30:01; [22]): 9.37 µM
Kd (HLA-A*02:01 [7]; [22]): 15.5 µM

Sequence: RSFRIHILF
Kd (HLA-B*15:01 [6]; source organism: Mycobacterium tuberculosis): ≥ 10 µM
Kd (HLA-B*58:01 [18]): 4.4 µM

Sequence: SYPPPPASF
Kd (HLA-A*11:01; [23]): ≥ 20 µM
Kd (HLA-A*01:01; [23]): ≥ 20 µM
Kd (HLA-B*35:01; [23]): 1.59 µM
Kd (HLA-A*69:01 [1]; [23]): ≥ 20 µM
Kd (HLA-A*03:01 [2]; [23]): ≥ 20 µM
Kd (HLA-A*26:01 [3]; [23]): ≥ 20 µM
Kd (HLA-A*24:03 [4]; [23]): 0.00084 µM
Kd (HLA-B*40:01; [23]): ≥ 20 µM
Kd (HLA-B*58:01 [5]; [23]): ≥ 20 µM
Kd (HLA-B*08:01; [23]): ≥ 20 µM
Kd (HLA-B*27:05; [23]): ≥ 20 µM
Kd (HLA-B*44:02; [23]): ≥ 20 µM
Kd (HLA-A*30:01; [23]): ≥ 44.4 µM
Kd (HLA-B*15:01 [6]; [23]): ≥ 10 µM
Kd (HLA-A*02:01 [7]; [23]): ≥ 20 µM

Sequence: VPPTNSINK
Kd (HLA-A*11:01; [21]): ≥ 20 µM
Kd (HLA-A*01:01; [21]): ≥ 20 µM
Kd (HLA-A*31:01; [21]): ≥ 20 µM
Kd (HLA-B*35:01; [21]): 15 µM
Kd (HLA-A*69:01 [1]; [21]): ≥ 20 µM
Kd (HLA-A*03:01 [2]; [21]): ≥ 20 µM
Kd (HLA-A*26:01 [3]; [21]): ≥ 20 µM
Kd (HLA-A*24:03 [4]; [21]): ≥ 20 µM
Kd (HLA-B*40:01; [21]): ≥ 20 µM
Kd (HLA-B*58:01 [5]; [21]): ≥ 20 µM
Kd (HLA-B*08:01; [21]): ≥ 20 µM
Kd (HLA-B*27:05; [21]): ≥ 20 µM
Kd (HLA-B*44:02; [21]): ≥ 20 µM
Kd (HLA-B*15:01 [6]; [21]): ≥ 10 µM
Kd (HLA-A*02:01 [7]; [21]): ≥ 20 µM
